Experimental data taken from PMC6289461, “Mek1 coordinates meiotic progression with DNA break repair by directly phosphorylating and inhibiting the yeast pachytene exit regulator Ndt80”.

Target: T1, 6xHis-Ndt80 WT DBD (Saccharomyces cerevisiae, UniProt P38830 1-340)
T1 sequence: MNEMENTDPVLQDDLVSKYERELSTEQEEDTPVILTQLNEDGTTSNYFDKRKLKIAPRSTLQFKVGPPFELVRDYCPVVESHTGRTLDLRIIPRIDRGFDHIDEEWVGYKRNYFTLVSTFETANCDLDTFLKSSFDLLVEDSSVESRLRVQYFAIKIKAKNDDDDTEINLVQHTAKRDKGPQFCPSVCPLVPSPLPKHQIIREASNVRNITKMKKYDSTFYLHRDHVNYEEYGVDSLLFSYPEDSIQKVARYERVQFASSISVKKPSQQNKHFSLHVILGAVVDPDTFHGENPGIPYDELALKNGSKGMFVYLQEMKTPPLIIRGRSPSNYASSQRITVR
Assay: EMSA; 50 nM DBD, 50 nM duplex; highest non-specific binding of the three DBDs; EMSA: 10 mM Tris-HCl pH 7.5, 40 mM NaCl, 4 mM MgCl2, 6% glycerol, 10 mg/ml BSA, 10 ug/ml sonicated salmon sperm DNA; 20 ul, room temperature, 30 min; 6% PAGE in 0.5X TBE
Conditions: protein: recombinant; tags: N-terminal 6xHis (pET-28a); label: 5' Cy5 on strand 1; blunt

B1: Cy5-Scr duplex (dsDNA)
DNA 1: ATTGACGCGGCTTCATCTCACGTATCATT
DNA 2: AATGATACGTGAGATGAAGCCGCGTCAAT
- binding result: binds
